{"source": "paper PMC4627230", "about": "“Identification of TAX2 peptide as a new unpredicted anti-cancer agent” (Oncotarget, 2015)", "binders": {"B1": {"name": "thrombospondin-1 (TSP-1), endogenous in HUVECs (natural protein)", "chain": "not shown", "notes": "thrombospondin-1, endogenous in human umbilical vein endothelial cells; detected by anti-TSP-1 (clone A6.1); source: endogenous, HUVEC protein lysate or conditioned media"}}, "biological_target": "T1, CD36, endogenous in HUVECs (human (endogenous in HUVECs), UniProt P16671 1-472)", "T1 construct": "CD36, endogenous in HUVECs; immunoprecipitated with anti-CD36; also called CD36-containing complexes; source: endogenous, HUVEC whole cell extracts", "T1 sequence (P16671 whole entry)": "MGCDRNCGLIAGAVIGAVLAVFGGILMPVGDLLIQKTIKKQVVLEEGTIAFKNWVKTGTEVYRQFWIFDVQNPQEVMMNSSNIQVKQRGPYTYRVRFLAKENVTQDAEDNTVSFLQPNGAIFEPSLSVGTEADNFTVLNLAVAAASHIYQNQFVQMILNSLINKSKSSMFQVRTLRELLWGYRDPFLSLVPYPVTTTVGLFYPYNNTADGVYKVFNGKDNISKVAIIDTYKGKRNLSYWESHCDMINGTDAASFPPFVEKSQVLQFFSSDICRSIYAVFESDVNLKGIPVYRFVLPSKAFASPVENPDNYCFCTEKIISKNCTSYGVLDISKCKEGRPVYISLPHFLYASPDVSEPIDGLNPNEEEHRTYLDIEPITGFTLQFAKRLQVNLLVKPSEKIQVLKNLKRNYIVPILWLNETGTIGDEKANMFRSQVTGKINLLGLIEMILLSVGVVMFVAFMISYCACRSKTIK", "experiment": "co-IP; antibody (anti-CD47 B6H12, anti-CD36, anti-FGF2, anti-VEGF, anti-β1 integrin, anti-LRP1 heavy chain) covalently coupled to resin (Pierce Co-IP kit), incubated with whole HUVEC protein lysate (or conditioned media) overnight at 4°C, no cross-linker; cells treated with 100 μM TAX2 or control peptide; for VEGFR2 also 30 ng/mL VEGF for 5 min; immunoblot", "details": "partners not purified"}
{"binder": "B1", "values": [{"measurement": "fold increase of co-immunoprecipitated TSP-1 with TAX2 (100 μM) against control", "result": 3, "unit": "fold"}]}
